In US20250099579A1 (MARENGO THERAPEUTICS, published 2025):

Assays:
human IL2R beta-gamma = target: T1, human IL2R beta-gamma (human, UniProt P14784 27-239; P31785 23-262); assay: SPR (Biacore T200), BKM0186 captured via anti-human Fc on CM5 chip, receptor as analyte, 1:1 Langmuir model
T1 construct: Soluble heterodimer used as analyte; also called Human IL-2Rβγ; IL-2Rβγ heterodimer
T1 sequence (looked up) 1: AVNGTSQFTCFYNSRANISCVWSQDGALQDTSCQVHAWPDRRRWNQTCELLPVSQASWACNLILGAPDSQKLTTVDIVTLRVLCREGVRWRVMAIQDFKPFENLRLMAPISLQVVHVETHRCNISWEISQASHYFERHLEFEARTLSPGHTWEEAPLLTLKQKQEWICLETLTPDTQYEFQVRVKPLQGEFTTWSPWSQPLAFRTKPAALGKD
T1 sequence (looked up) 2: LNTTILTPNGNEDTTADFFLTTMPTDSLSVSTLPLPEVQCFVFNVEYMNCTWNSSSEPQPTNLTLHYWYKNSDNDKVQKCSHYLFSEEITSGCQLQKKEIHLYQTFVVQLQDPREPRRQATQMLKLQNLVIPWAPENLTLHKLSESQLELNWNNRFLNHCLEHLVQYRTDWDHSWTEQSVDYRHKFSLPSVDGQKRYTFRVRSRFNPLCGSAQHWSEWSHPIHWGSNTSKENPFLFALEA
Method: (§1) All interactions between bispecifics and relevant receptors were analyzed by Surface Plasmon Resonance (SPR) on a Biacore T200 instrument.
(§2) BKM0186 at 2 μg/mL was immobilized on a Series S CM5 chip via human Fe antibody to 80 RU. Human IL2Ra and cynomolgus IL2Ra were diluted to 500 nM, human IL2R beta-gamma and cynomolgus IL2R beta-gamma were diluted to 125 nM, and human IL2R trimeric complex was diluted to 50 nM and then serially diluted two-fold in 1×HBS-EP+ buffer for a total of 10 concentrations. Multi cycle kinetics was run where the chip is regenerated with 3 M Magnesium Chloride between each cycle followed by a new injection of BKM0186. An association time of 120 seconds and a dissociation time of 150 seconds for human and cyno IL2Ra, 300 seconds for human and cyno IL2R beta-gamma, and 900 seconds for the human IL2R trimeric complex was done at 30 uL/min. This assay was run in 1×HBS-EP+ Buffer pH 7.4 and 25 C. Sensorgrams were corrected by double reference subtraction using the reference flow cell not treated with BKM0186 and a blank cycle of buffer alone. BIAevaluation software was used for data analysis and the data were fit using a 1:1 Langmuir binding model for calculation of the KD value (Koff/Kon). Due to faster off rates observed for human and cyno IL2Ra binding, the data were fit using a steady state model where equilibrium binding response is analyzed.

[1] = target: T2, cynomolgus IL2R beta-gamma (cynomolgus); assay: as above
T2 construct: also called Cyno IL-2Rβγ
Method: as §1, §2

Vβ6 TCR on human T cells [2] = target: T3, Vβ6 TCR on human T cells (human); assay: flow cytometry on sorted, activated TCRVβ6-5 positive CD25 hi human T cells (cells carry both Vβ6 TCR and CD25; co-operative binding)
T3 construct: whole, on cells; Polyclonal T cells: CDR3 and the paired alpha chains vary; also called Vβ6 T cells; TCRVβ6-5
Text: Pan T-cells were isolated from PBMC's via negative selection on the autoMACS. T-cells were stained for TCRVβ6-5 and sorted on the Sony SH800 cell sorter into cell culture media. Sorted TCRVβ6-5 T-cells and non-sorted pan T-cells were activated and expanded using anti-CD3/CD28 beads followed by IL-2 culture. Portion of activated T-cells were allowed to rest for 3-days in serum-free media. Anti-CD25 FACS staining to confirm CD25 upregulation (from activation) and downmodulation (from resting). T-cells that represents TCRVβ6-5(pos) CD25(hi); TCRVβ6-5(pos) CD25(low); TCRVβ6-5(neg) CD25(hi); TCRVβ6-5(neg) CD25(low) are checked for BKM0186 construct binding.
This avidity effect confirms that BKM0186 engages both Vβ6 and IL-2R via a cis binding mode.

Vβ6 TCR on human T cells [3] = target: T3, Vβ6 TCR on human T cells; assay: cell-based or functional assay
cynomolgus Vβ6 TCR = target: T4, cynomolgus Vβ6 TCR (cynomolgus); assay: SPR (Biacore T200), BKM0186 captured via anti-human Fc on CM5 chip (80 RU), TCR as analyte, multi cycle kinetics, 1:1 Langmuir model, 25 C
T4 construct: also called Cyno TCRVβ
Method: as §1
(§3) BKM0186 at 2 μg/mL was immobilized on a Series S CM5 chip via human Fe antibody to 80 RU. Human Vβ6 TCR and cynomolgus Vβ6 TCR were diluted to 250 nM and then serially diluted two-fold in 1×HBS-EP+ buffer for a total of 10 concentrations. Multi cycle kinetics was done with an association time of 120 seconds and a dissociation time of 600 seconds, for human Vβ6 TCR and 300 seconds for cynomolgus Vβ6 TCR at 30 uL/min. This assay was run in 1×HBS-EP+ Buffer pH 7.4 at 25 C. Sensorgrams were corrected by reference subtraction using the reference flow cell not treated with BKM0186. BIAevaluation software was used for data analysis and the data were fit using a 1:1 Langmuir binding model for calculation of the KD value (Koff/Kₒₙ).

Human Vβ6 TCR = target: T5, Human Vβ6 TCR (human); assay: as above
T5 construct: The method text calls it Human Vβ6 TCR; also called Human TCRVβ
Method: as §1, §3

Human IL2Ra = target: T6, Human IL2Ra (human, UniProt P01589 22-213, limits assumed); assay: SPR (Biacore T200), BKM0186 captured via anti-human Fc on CM5 chip, receptor as analyte, steady state model
T6 construct: also called Human IL-2Rα; CD25
T6 sequence (looked up): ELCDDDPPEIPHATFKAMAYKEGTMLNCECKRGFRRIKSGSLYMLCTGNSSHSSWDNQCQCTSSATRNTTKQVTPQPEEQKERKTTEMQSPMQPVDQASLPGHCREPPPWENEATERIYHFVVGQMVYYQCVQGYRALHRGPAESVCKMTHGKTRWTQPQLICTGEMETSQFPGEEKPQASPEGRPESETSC
Method: as §1, §2

cynomolgus IL2Ra = target: T7, cynomolgus IL2Ra (cynomolgus, UniProt H6WS54 22-213); assay: as above
T7 construct: also called Cyno IL-2Rα
T7 sequence: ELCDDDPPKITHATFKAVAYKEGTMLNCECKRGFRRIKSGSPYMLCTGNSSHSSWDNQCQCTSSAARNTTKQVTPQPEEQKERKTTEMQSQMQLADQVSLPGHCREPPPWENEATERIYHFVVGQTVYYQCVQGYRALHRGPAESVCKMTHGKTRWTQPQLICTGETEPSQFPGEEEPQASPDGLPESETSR
Method: as §1, §2

[4] = target: T8, human IL2R trimeric complex (human, UniProt P01589 22-213; P14784 27-239; P31785 23-262); assay: SPR (Biacore T200), BKM0186 captured via anti-human Fc on CM5 chip, receptor complex as analyte, 1:1 Langmuir model
T8 construct: also called Human IL-2Rαβγ
T8 sequence (looked up) 1: T6 sequence (looked up)
T8 sequence (looked up) 2: T1 sequence (looked up) 1
T8 sequence (looked up) 3: T1 sequence (looked up) 2
Method: as §1, §2

T3 sequence (A0A0K0K1A5 22-114): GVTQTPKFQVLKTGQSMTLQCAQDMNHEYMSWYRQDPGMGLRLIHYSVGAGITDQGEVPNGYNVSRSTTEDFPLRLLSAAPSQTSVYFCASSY

Kd (human IL2R beta-gamma): 3.8 nM | Kd [1]: 3.3 nM | EC50 (Vβ6 TCR on human T cells [2]): 0.5 nM | EC50 of proliferation of Vβ6 T cells as a proportion of total CD4+ T cells (human PBMCs, 5 days) (Vβ6 TCR on human T cells [3]): 12 nM | EC50 of proliferation of Vβ6 T cells as a proportion of total CD8+ T cells (human PBMCs, 5 days) (Vβ6 TCR on human T cells [3]): 6 nM | Kd (cynomolgus Vβ6 TCR): 4.9 nM | Kd (Human Vβ6 TCR): 1.7 nM | Kd (Human IL2Ra): 45 nM | Kd (cynomolgus IL2Ra): 48 nM | Kd [4]: 0.1 nM
B1: BKM0186 (bispecific antibody, human IgG1, kappa, N297A)
heavy: QVQLVQSGAEVKKPGSSVKVSCKASGHDFRLTYIHWVRQAPGQGLEWMGRVSAGSGNVKYNEKFKGRVTITADTSTSTAYMELSSLRSEDTAVYYCAVSYYSYDVLDYWGQGTTVTVSSASTKGPSVFPLAPSSKSTSGGTAALGCLVKDYFPEPVTVSWNSGALTSGVHTFPAVLQSSGLYSLSSVVTVPSSSLGTQTYICNVNHKPSNTKVDKRVEPKSCDKTHTCPPCPAPELLGGPSVFLFPPKPKDTLMISRTPEVTCVVVDVSHEDPEVKFNWYVDGVEVHNAKTKPREEQYASTYRVVSVLTVLHQDWLNGKEYKCKVSNKALPAPIEKTISKAKGQPREPQVCTLPPSREEMTKNQVSLSCAVKGFYPSDIAVEWESNGQPENNYKTTPPVLDSDGSFFLVSKLTVDKSRWQQGNVFSCSVMHEALHNHYTQKSLSLSPGK
chain: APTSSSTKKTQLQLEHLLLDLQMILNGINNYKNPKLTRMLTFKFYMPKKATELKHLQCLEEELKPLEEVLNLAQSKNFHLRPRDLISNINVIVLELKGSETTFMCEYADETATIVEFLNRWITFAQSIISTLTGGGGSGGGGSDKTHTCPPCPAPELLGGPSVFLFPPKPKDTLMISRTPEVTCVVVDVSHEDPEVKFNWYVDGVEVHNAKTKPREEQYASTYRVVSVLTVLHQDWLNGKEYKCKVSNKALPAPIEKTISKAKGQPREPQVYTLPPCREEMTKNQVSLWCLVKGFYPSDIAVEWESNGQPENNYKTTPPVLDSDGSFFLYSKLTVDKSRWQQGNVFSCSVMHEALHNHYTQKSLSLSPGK
light: DIQMTQSPSFLSASVGDRVTITCKASQNVADRVVWHQQKPGKAPKALIYSSSHRYKGVPSRFSGSGSGTEFTLTISSLQPEDFATYFCQQFKSYPLTFGQGTKLEIKRTVAAPSVFIFPPSDEQLKSGTASVVCLLNNFYPREAKVQWKVDNALQSGNSQESVTEQDSKDSTYSLSSTLTLSKADYEKHKVYACEVTHQGLSSPVTKSFNRGEC
notes: also called TCRVβ/IL-2 (C125A) bispecific; IL2xTCRVβ
